Measured values reported in patent US20110262366A1.
Values belong to the substance of their own block, whether it stands above or below them.

Experiments:
[1] = target: endothelial cell receptor on HAEC (human aortic endothelial cells); test: competition, 125 ng/ml KDR/Fc against 5% DPPE-GTKPPR microbubbles (competitor) on HAEC, static
[2] = target: endothelial cell receptor on HAEC (human aortic endothelial cells); test: competition, 250 ng/ml KDR/Fc against 5% DPPE-GTKPPR microbubbles (competitor) on HAEC, static
[3] = target: endothelial cell receptor on HAEC (human aortic endothelial cells); test: competition, 1000 ng/ml KDR/Fc against 5% DPPE-GTKPPR microbubbles (competitor) on HAEC, static
[4] = target: endothelial cell receptor on HAEC (human aortic endothelial cells); test: competition, 2500 ng/ml KDR/Fc against 5% DPPE-GTKPPR microbubbles (competitor) on HAEC, static
[5] = target: endothelial cell receptor on HAEC (human aortic endothelial cells); test: competition, 500 ng/ml KDR/Fc against 5% DPPE-GTKPPR microbubbles (competitor) on HAEC, static
[6] = target: endothelial cell receptor on HAEC (human aortic endothelial cells); test: competition, 50 ng/ml VEGF165 against 5% DPPE-GTKPPR microbubbles (competitor) on HAEC, static
[7] = target: endothelial cell receptor on HAEC (human aortic endothelial cells); test: competition, 25 ng/ml VEGF165 against 5% DPPE-GTKPPR microbubbles (competitor) on HAEC, static
[8] = target: NP-1/Fc (Neuropilin-1/Fc, R&D Systems); test: fluorescence polarization, competition against OG-labeled BRU-326 (competitor) on NP-1/Fc
NP-1/Fc (Neuropilin-1/Fc, R&D Systems), sequence (Q9QWJ9 22-855): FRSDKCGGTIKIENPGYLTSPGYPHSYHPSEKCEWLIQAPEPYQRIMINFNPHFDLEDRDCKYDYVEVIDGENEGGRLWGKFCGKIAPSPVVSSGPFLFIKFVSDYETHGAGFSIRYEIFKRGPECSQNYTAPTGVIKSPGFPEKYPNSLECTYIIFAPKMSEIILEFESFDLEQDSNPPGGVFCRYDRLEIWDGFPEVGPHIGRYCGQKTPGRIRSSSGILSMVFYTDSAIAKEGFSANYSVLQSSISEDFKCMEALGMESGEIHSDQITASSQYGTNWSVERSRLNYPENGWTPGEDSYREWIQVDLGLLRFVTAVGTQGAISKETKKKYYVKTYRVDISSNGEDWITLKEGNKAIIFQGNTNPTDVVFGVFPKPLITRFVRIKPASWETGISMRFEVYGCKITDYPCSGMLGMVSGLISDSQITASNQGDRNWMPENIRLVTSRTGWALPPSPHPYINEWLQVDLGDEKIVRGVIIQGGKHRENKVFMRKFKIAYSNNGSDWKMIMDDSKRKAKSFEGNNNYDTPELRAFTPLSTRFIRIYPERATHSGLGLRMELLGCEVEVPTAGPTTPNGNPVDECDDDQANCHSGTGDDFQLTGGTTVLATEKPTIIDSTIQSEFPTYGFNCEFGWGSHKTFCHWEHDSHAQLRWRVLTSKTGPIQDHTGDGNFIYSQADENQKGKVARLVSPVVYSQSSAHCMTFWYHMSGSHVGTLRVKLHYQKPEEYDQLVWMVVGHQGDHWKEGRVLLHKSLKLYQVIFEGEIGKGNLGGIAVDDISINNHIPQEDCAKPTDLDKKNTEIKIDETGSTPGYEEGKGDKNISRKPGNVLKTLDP

[9] = target: endothelial cell receptor on HAEC (human aortic endothelial cells); test: competition, 200 ng/ml VEGF165 against 2% BRU-114 microbubbles (competitor) on HAEC, static
[10] = target: endothelial cell receptor on HAEC (human aortic endothelial cells); test: competition, 25 ng/ml VEGF165 against 2% BRU-114 microbubbles (competitor) on HAEC, static
[11] = target: endothelial cell receptor on HAEC (human aortic endothelial cells); test: competition, 100 ng/ml VEGF165 against 2% BRU-114 microbubbles (competitor) on HAEC, static
[12] = target: endothelial cell receptor on HAEC (human aortic endothelial cells); test: competition, 75 ng/ml VEGF165 against 5% DPPE-GTKPPR microbubbles (competitor) on HAEC, static
[13] = target: endothelial cell receptor on HAEC (human aortic endothelial cells); test: competition, 6.25 ng/ml VEGF165 against 5% DPPE-GTKPPR microbubbles (competitor) on HAEC, static
[14] = target: endothelial cell receptor on HAEC (human aortic endothelial cells); test: competition, 12.5 ng/ml VEGF165 against 5% DPPE-GTKPPR microbubbles (competitor) on HAEC, static
[15] = target: endothelial cell receptor on HAEC (human aortic endothelial cells); test: competition, VEGF165 against 5% DPPE-GTKPPR microbubbles (competitor) on HAEC, static
[16] = target: endothelial cell receptor on HAEC (human aortic endothelial cells); test: conjugated fluorescent beads on confluent HAEC, static 30 min, image analysis (Example 2, experiment 1)
[17] = target: endothelial cell receptor on HAEC (human aortic endothelial cells); test: competition, 200 ng/ml VEGF121 against 2% BRU-114 microbubbles (competitor) on HAEC, static
[18] = target: endothelial cell receptor on HAEC (human aortic endothelial cells); test: competition, 100 ng/ml VEGF121 against 2% BRU-114 microbubbles (competitor) on HAEC, static
[19] = target: endothelial cell receptor on HAEC (human aortic endothelial cells); test: competition, 400 ng/ml VEGF121 against 2% BRU-114 microbubbles (competitor) on HAEC, static

soluble human KDR/Fc chimera (R&D Systems Inc.), sequence (P35968 20-764, change not shown): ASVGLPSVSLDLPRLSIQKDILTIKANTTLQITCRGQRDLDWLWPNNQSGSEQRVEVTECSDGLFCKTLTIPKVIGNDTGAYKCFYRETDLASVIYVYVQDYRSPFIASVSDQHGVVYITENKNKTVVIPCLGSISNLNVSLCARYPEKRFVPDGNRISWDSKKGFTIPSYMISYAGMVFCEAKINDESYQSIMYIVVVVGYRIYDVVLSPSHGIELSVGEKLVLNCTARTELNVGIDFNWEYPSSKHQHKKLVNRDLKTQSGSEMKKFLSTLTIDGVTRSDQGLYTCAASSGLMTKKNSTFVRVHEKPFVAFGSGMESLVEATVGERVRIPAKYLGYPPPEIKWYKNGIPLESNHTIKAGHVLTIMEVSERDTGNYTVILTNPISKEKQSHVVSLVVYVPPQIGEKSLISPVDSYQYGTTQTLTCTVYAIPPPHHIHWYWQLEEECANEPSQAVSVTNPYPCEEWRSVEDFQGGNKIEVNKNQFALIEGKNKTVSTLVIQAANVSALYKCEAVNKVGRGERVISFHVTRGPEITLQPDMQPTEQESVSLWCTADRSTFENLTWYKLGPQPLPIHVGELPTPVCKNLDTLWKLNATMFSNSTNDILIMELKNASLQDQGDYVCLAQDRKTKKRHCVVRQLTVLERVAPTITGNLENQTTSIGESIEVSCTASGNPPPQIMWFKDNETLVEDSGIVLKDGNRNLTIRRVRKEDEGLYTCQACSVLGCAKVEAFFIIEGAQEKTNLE

Bubbles Bound in presence of competitor [1]: 1030 bubbles
Bubbles Bound in presence of competitor [2]: 786 bubbles
Bubbles Bound in presence of competitor [3]: 75 bubbles
Bubbles Bound in presence of competitor [4]: 84 bubbles
Bubbles Bound in presence of competitor [5]: 342 bubbles
Substance: soluble human KDR/Fc chimera (R&D Systems Inc.) (from UniProt P35968 20-764) (Fc fusion)

Bubbles Bound in presence of competitor [6]: 226 bubbles
Bubbles Bound in presence of competitor [7]: 342 bubbles
IC50 [8]: 200 nM
Bubbles Bound in presence of competitor [9]: 70 bubbles
Bubbles Bound in presence of competitor [10]: 144 bubbles
Bubbles Bound in presence of competitor [11]: 94 bubbles
Bubbles Bound in presence of competitor [12]: 190 bubbles
Bubbles Bound in presence of competitor [13]: 1180 bubbles
Bubbles Bound in presence of competitor [14]: 599 bubbles
IC50 [15]: 0.0125 µg/mL
Substance: VEGF165 (from UniProt P15692 27-191) (ligand)

Integrated density of bound beads (arbitrary units) [16]: 1.61
Substance: BSA-conjugated fluorescent beads (from UniProt P02769 25-607)

Bubbles Bound in presence of competitor [17]: 849 bubbles
Bubbles Bound in presence of competitor [18]: 878 bubbles
Bubbles Bound in presence of competitor [19]: 778 bubbles
Substance: VEGF121 (from UniProt P15692 27-147) (ligand)
